Each sequence was assayed on Escherichia coli TOP10 (assay: shrunken log2 fold change of peptide-encoding DNA abundance (4.5 h post-induction vs induction); higher = less antimicrobial activity (less host growth inhibition)). Settings: time post-induction: 4.5 h; library: site-saturation at positions 5, 18, 19, 20.
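Further: peptides expressed intracellularly from a pBAD plasmid library in pooled LB shake-flask culture, induced with 0.3% L-arabinose, DNA abundance read by NGS, three biological replicates, DESeq2 with apeglm shrinkage.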

| Sequence | shrunken log2 fold change |
| --- | --- |
| RRIRNRPPRLPRPRPRPMTCPRP | -0.0075 |
| RRIRWRPPRLPRPRPRPFSCPRP | -0.00231 |
| RRIRERPPRLPRPRPRPRRFPRP | 0.158 |
| RRIRDRPPRLPRPRPRPSFAPRP | 0.263 |
| RRIRRRPPRLPRPRPRPKLGPRP | 0.141 |
| RRIRQRPPRLPRPRPRPYLQPRP | 0.000139 |
| RRIRNRPPRLPRPRPRPVIMPRP | 0.178 |
| RRIRSRPPRLPRPRPRPMYHPRP | -0.762 |
| RRIRIRPPRLPRPRPRPEEFPRP | -0.0304 |
| RRIRKRPPRLPRPRPRPPLYPRP | 0.948 |
| RRIRGRPPRLPRPRPRPVEAPRP | 0.997 |
| RRIRARPPRLPRPRPRPGEIPRP | 0.599 |
| RRIRIRPPRLPRPRPRPWPEPRP | -0.162 |
| RRIRFRPPRLPRPRPRPGLNPRP | 0.207 |
| RRIRTRPPRLPRPRPRPFYCPRP | -0.505 |
| RRIRVRPPRLPRPRPRPSIHPRP | -0.755 |
| RRIRCRPPRLPRPRPRPWKHPRP | -0.264 |
| RRIRERPPRLPRPRPRPCGWPRP | 0.154 |
| RRIRNRPPRLPRPRPRPDTMPRP | -1.25 |
| RRIRYRPPRLPRPRPRPPVEPRP | -0.108 |
| RRIRQRPPRLPRPRPRPNCNPRP | -0.882 |
| RRIRQRPPRLPRPRPRPSVLPRP | -0.0352 |
| RRIRPRPPRLPRPRPRPIAYPRP | -0.0833 |
| RRIRCRPPRLPRPRPRPFEVPRP | -0.152 |
| RRIRYRPPRLPRPRPRPGLFPRP | -0.0365 |

| Sequence | shrunken log2 fold change |
| --- | --- |
| RRIRGRPPRLPRPRPRPSSQPRP | 0.099 |
| RRIRGRPPRLPRPRPRPLMVPRP | 0.885 |
| RRIRLRPPRLPRPRPRPHYPPRP | -0.736 |
| RRIRTRPPRLPRPRPRPLVNPRP | -0.559 |
| RRIRKRPPRLPRPRPRPPGAPRP | 1.3 |
| RRIRFRPPRLPRPRPRPQGDPRP | 0.014 |
| RRIRKRPPRLPRPRPRPTTSPRP | 0.321 |
| RRIRSRPPRLPRPRPRPVASPRP | -0.151 |
| RRIRTRPPRLPRPRPRPMDWPRP | -0.05 |
| RRIRQRPPRLPRPRPRPPAQPRP | 0.0181 |
| RRIRHRPPRLPRPRPRPYHRPRP | -0.00968 |
| RRIRNRPPRLPRPRPRPAADPRP | 0.342 |
| RRIRSRPPRLPRPRPRPPEHPRP | 0.169 |
| RRIRSRPPRLPRPRPRPEHKPRP | -0.156 |
| RRIRERPPRLPRPRPRPTQPPRP | 0.254 |
| RRIRNRPPRLPRPRPRPRCHPRP | -0.572 |
| RRIRYRPPRLPRPRPRPQFVPRP | 0.119 |
| RRIRKRPPRLPRPRPRPFKCPRP | -0.0191 |
| RRIRYRPPRLPRPRPRPASQPRP | -0.08 |
| RRIRHRPPRLPRPRPRPHFWPRP | -0.0607 |
| RRIRCRPPRLPRPRPRPWVYPRP | -0.0957 |
| RRIRFRPPRLPRPRPRPFRRPRP | -0.0629 |
| RRIRERPPRLPRPRPRPCEPPRP | 0.123 |
| RRIRNRPPRLPRPRPRPVVLPRP | -0.179 |
| RRIRHRPPRLPRPRPRPSSAPRP | -0.0336 |

| Sequence | shrunken log2 fold change |
| --- | --- |
| RRIRIRPPRLPRPRPRPLEHPRP | -0.105 |
| RRIRNRPPRLPRPRPRPDTWPRP | -0.213 |
| RRIRDRPPRLPRPRPRPDEHPRP | 0.0279 |
| RRIRNRPPRLPRPRPRPEKSPRP | 0.31 |
| RRIRGRPPRLPRPRPRPCKLPRP | -0.378 |
| RRIRKRPPRLPRPRPRPRCYPRP | -0.181 |
| RRIRCRPPRLPRPRPRPNRGPRP | -0.00554 |
| RRIRHRPPRLPRPRPRPHARPRP | 0.0947 |
| RRIRERPPRLPRPRPRPTRYPRP | -0.154 |
| RRIRLRPPRLPRPRPRPCTQPRP | -0.174 |
| RRIRFRPPRLPRPRPRPRYEPRP | -0.598 |
| RRIRERPPRLPRPRPRPKNDPRP | -0.467 |
| RRIRLRPPRLPRPRPRPTTTPRP | 0.00266 |
| RRIRFRPPRLPRPRPRPMPYPRP | -0.218 |
| RRIRARPPRLPRPRPRPFNIPRP | -0.307 |
| RRIRIRPPRLPRPRPRPVAMPRP | -0.0657 |
| RRIRFRPPRLPRPRPRPMYQPRP | -0.167 |
| RRIRRRPPRLPRPRPRPESGPRP | 0.545 |
| RRIRHRPPRLPRPRPRPVRPPRP | 0.365 |
| RRIRSRPPRLPRPRPRPCGCPRP | -0.00437 |
| RRIRLRPPRLPRPRPRPGVPPRP | 0.0447 |
| RRIRTRPPRLPRPRPRPPCIPRP | 0.00685 |
| RRIRGRPPRLPRPRPRPPNSPRP | 0.301 |
| RRIRMRPPRLPRPRPRPLKCPRP | -0.0167 |
| RRIRDRPPRLPRPRPRPDPKPRP | 0.189 |
